Target: Human thyroid-stimulating hormone receptor (human) (UniProt P16473)
Sequence of UniProt P16473 (P16473 21-764): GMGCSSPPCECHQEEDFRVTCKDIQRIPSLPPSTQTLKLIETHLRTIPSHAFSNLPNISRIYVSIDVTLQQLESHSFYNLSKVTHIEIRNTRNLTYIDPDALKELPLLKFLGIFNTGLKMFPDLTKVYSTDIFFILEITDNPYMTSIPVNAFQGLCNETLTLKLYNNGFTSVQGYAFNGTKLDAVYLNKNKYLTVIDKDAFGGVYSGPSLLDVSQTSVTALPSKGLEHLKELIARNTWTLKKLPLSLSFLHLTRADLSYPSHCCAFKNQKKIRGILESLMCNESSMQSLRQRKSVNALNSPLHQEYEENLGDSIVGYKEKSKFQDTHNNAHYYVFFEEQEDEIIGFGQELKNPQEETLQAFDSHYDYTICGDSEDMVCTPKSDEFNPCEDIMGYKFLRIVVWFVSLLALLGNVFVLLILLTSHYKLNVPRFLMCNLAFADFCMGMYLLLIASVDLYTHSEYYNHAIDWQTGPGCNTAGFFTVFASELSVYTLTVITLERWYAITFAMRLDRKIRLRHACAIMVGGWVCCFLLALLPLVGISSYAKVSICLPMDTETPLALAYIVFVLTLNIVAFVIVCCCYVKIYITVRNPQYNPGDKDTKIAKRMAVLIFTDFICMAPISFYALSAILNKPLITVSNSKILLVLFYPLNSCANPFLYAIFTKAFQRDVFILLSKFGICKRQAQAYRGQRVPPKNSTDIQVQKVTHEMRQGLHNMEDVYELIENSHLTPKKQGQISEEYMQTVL

Question: How did the EC50 of the NFAT-driven luciferase reporter (RLU) in HEK293-TSHR/NFAT-Luc cells seeded at 0.8 × 10^5 cells/mL, serially diluted rhTSH turn out when “Recombinant human thyroid-stimulating hormone (from UniProt P01215 25-116; P01222 21-132) (ligand)” was run?
Answer: 0.32
